Measured values taken from the supplement of paper PMC9170038.

test system: MS2 coat protein; assay: apparent KD of MS2 coat protein; higher = weaker reporter binding; details: Eterna round: R107; input ligand: theophylline 2 mM
How it was run: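 In 100 mM Tris-HCl pH 7.5 with 80 mM KCl and 4 mM MgCl2, and without or with constant ligand, SNAP-549-labelled MS2 coat protein was titrated in twofold steps from 0.7 or 1.5 nM to 3 µM. Per-step times went from 0.8–1.5 h down to 10–20 min. The RNA switches were transcribed on-chip from Illumina sequencing clusters, and apparent KD is the per-design median of normalised cluster binding-curve fits.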

Sequence	apparent KD of MS2 coat protein [nM]
CAGCACAUGAGGAUCACCCAUGUGAGGGAUACCAGCUCAGGCGUGGGCCCUUGGCAGCUCUGUGGCUGACGAAAGUCAGCCUCUG [#18 SameState-TheophyllineA]	15.4
GCACAAGAUGGAAGGAGCGCUGGUAUAAGUCACAUGAGGAUCACCCAUGUGCUCCUUGCCGAGCAGGUAGGUCGCCAUCUUGUGC [SSAB NP+V+V2 #5]	66.9
GCAUCCUAGUCGGCCGCCACUGGGUGUACCCAGUGCUGGUACAAACAUGAGGAUCACCCAUGUACCAGGACCGGGACUAGGAUGC [(Trp1)-(MT2)''-(T1)'-(MT2)'-(Ms2)-(Trp2)_Design4]	16.7
UGAUAUAGGGAGCCGUAUCAGAAACCUGAAGGAGCGCCGGAAAAGGCAGGUAGGUCGCGGGAACAUGAGGAUCACCCAUGUAUUC [dancer_small]	19.2
AAUGGUCGUACUGGAAUGGUGAUCCUCAAACGAGGACCGGUACGGCCGCCACUCGAUAACAUGAGGAUCACCCAUGUAAUAAUAA [|T'-M'-Trp-Ms2|_Design13b]	55.2
AGCACUGUGACGGCCGCCACUACAUAACAUGGGUGGUCAGGUUCAUUACAUGAGGAUCACCCAUGUAGGACCGGGUCUCAGUGCA [Omei Trp Exc B A v11]	12.6
ACAUGAGGAUCACCCAUGUAAUACCGGGAAGGAGCGCGUAAGGACGCAGGUAGGUCGCUCGGCGUCCGGCCGCAAGGCCGGACGA [#1 Same State - Arginine A Attempt #12 (HarryS)]	10.7
ACGGAUCGGAAACGAUCCGCGGCGCGGGUGCGAGGACCGGUACGGCCGCCACUCGGGUAACAUGAGGAUCACCCAUGUCCGAUUU [ETA NP+V+V2 #12]	129
CAAUAAGUACCGGUCCUCAGAUCCUCAUGACGAGGACCGGUACGGCCGCCACUCGAAACAUGAGGAUCACCCAUGUAAUAAUAAU [Brourdmod01]	24.2
AUGCAUGUCAGAAGGAGCGUCAGUAACAUGAGGAUCACCCAUGUAACAUUGAAUUCGAUGAGACAGGUAGGUCGCUGAAUAGUAA [JR_SSArginiB_Sub019]	35.9

same assay, conditions: Eterna round: R107; input ligand: tryptophan 2.4 mM

Sequence	apparent KD of MS2 coat protein [nM]
GCUGUAAGUGCAGAUACCAGCAGGUGAUAUUUCAUAUGACAUGAGGAUCACCCAUGUAACUGCCCUUGGCAGCUGCACUUACAGC [SSTHB #9]	523
GCAUCCUAGUCGGCCGCCACUGGUACGAAUACCUUCACCCGUGUGCACAUGAGGAUCACCCAUGUCAGGACCGGGACUAGGAUGC [SSTryp B #23]	9.61
CCUAUCCAGUCGGCCGCCACUGAAAACAGUGGGUGAACAUGAGGAUCACCCAUGUAGGAUUUCCACAGGACCGGGACUGUAUAGG [Ex Tryptophan B 24]	223
AAUAAUAAGGCGGCCGCCACUAAACAUGAGGAUCACCCAUGUCUCGCGGGCUUGCGUUGGGAAAGUAGGACCGGGCCAAUAAUAA [Exclusion - Tryptophan B (Freestyle 8)]	14.4
AUGUCGUUGAAUAUAGCGGCUUGGAGUGAUACCAGAAUGAUCCAAUUCCCUUGGCAGCAUUACAUGAGGAUCACCCAUGUUCCAG [SSTheo A #23]	48.6
CUUAUAUAUAGAAGGAGCGACAUGAGGAUCACCCAUGUCUACCACGUCGAAAGACGCUCAUGUCAGGUAGGUCGCUAUAUAUAAG [Astros-Eli-mod3]	120
AAUACCGGUCCUCGAAGCAUGGGUGAUCAACGAGGACCGGUACGGCCGCCACUCGAUAACAUGAGGAUCACCCAUGUAAUAAUAA [|T'-M'-Trp-Ms2|_Design5]	569
UCGGGCAGAGCGGCCGCCACUGUAUGGCAUGCGGAUGAAGGAACAUGAGGAUCACCCAUGUAGAUUAGGACCGGGCUUGCGGAGA [p''pmullin]	20
UAUAUAGAUGGACGUCAUCUAGAUGCAGAAGGAGCGUAGGAAACUACAGGUAGGUCGCUGAGGUACAUGAGGAUCACCCAUGUAG [SSArg A #21 Slice of Pi]	21.5
UGUAACAUGAGGAUCACCCAUGUGCACGAUACCAGCUUCGAAAGAGGCCCUUGGCAGCGUAUGCGUAAGCUGUAUAAUAUAUAUC [#28 SameState-TheophyllineA]	10.6
UUUUUUAACUGAAGGAGCGUCACAUGAGGAUCACCCAUGUAUUAGAUGAGAAUGAUCUUGUGGCAGGUAGGUCGCAGAGGAAGGG [#30 Exclusion - Arginine B]	370
GGUCUGAAAACCGAUCAAAGAUCGGAAGAUACCAGAGGGUGAUCCCUCCCUUGGCAGCUUCACAUGAGGAUCACCCAUGUAGACC [Omei inspired #BothOrNeither]	82.5
UGUAUGGACUGAAGGAGCGGGUUGAUAUCAUGAGGAUCACCCAUGGAAAAGGCGAAAGCCGCCCAGGUAGGUCGCAGUCCAUACU	26
UUAUGCAGGUCGGCCGCCACUACACACAUGAGGAUCACCCAUGUAGUUACUGGGUGAAGUGGCAGUAGGACCGGGACCCGCACAC [Brourdmod22]	258
AGCGCUAUGCAUGAUACCAGCUACAUGAGGAUCACCCAUGUGCGUCAGAAAUGACUGUGUAGCCCUUGGCAGCAUAAAGCAUGUA [Exclusion - Theophylline B (Freestyle 9)]	17.2
AAGGUAUCACAGACAUGGGUGUACUGUGAUACCAGCUAGGAAACUAGCCCUUGGCAGCACAUGAGGAUCACCCAUGUAAGAAUAA [(T)'-(M)'-(T1)-(T2)-(M1)-(M2)_Design4_2/19/17]	53.8
GGGCAAGGUGCCGCCUUCGCCCACUGAGAAGGAGCGCAGGGUACUGCAGGUAGGUCGCUCAGACAUGAGGAUCACCCAUGUAGGA [Esislees]	57.6
AUAUUAAUCGGAAGGAGCGGUACAUGAGGAUCACCCAUGUGGUAAGCUAGCAGAUCCCGUUACCAGGUAGGUCGCCGAGUUAUGA [XArg-B17]	216
AUGUGCAAUACGGAUACCAGCCCGUGUAGAUACAUGAGGAUCACCCAUGUCAAUGUAAAUGGCCCUUGGCAGCCGUUUGGGAGGC [theeternabot_sameState_MS2_Theo_B_35]	19.4
CUCCUGGGAGCGGCCGCCACUGGAGGCCUUGCGCGACAUGAGGAUCACCCAUGUUGUCCCGGCCUCAGGACCGGGUUCGCGCGAG [Same State - Tryptophan B Attempt #1]	8.67
GCAUGUUGGUGGUUUCUGCGAAGGCGGAAUCGAGGACCGGUACGGCCGCCACUCGGCGACAUGAGGAUCACCCAUGUGGUUAGGA [Exclusion - Tryptophan A (Freestyle 9)]	208
CAGCACAUGAGGAUCACCCAUGUGAGGGAUACCAGCUCAGGCGUGGGCCCUUGGCAGCUCUGUGGCUGACGAAAGUCAGCCUCUG [#18 SameState-TheophyllineA]	13.4
GCACAAGAUGGAAGGAGCGCUGGUAUAAGUCACAUGAGGAUCACCCAUGUGCUCCUUGCCGAGCAGGUAGGUCGCCAUCUUGUGC [SSAB NP+V+V2 #5]	68.1
AUAAUGGGUAUCGGAUUAUCAUGGAAUGAUACCAGAUACUUAGAUAUCCCUUGGCAGCAUGAGGACAUGAGGAUCACCCAUGUAU [#03 Exclusion-TheophyllineA]	54.9
CACUUCAUGUGAGAUACCAGUGCCUUACAUGAGGAUCACCCAUGUCGUAAUGUGGAGAAGCACCCUUGGCAGCUCGCUUCGAGUG [Theo B SS t6]	87.6
GCAUCCUAGUCGGCCGCCACUGGGUGUACCCAGUGCUGGUACAAACAUGAGGAUCACCCAUGUACCAGGACCGGGACUAGGAUGC [(Trp1)-(MT2)''-(T1)'-(MT2)'-(Ms2)-(Trp2)_Design4]	13.8
UGAUAUAGGGAGCCGUAUCAGAAACCUGAAGGAGCGCCGGAAAAGGCAGGUAGGUCGCGGGAACAUGAGGAUCACCCAUGUAUUC [dancer_small]	18.3
ACAUGAGGAUCACCCAUGUAAUACCGGGAAGGAGCGCGUAAGGACGCAGGUAGGUCGCUCGGCGUCCGGCCGCAAGGCCGGACGA [#1 Same State - Arginine A Attempt #12 (HarryS)]	14.7
AUGCAUGUCAGAAGGAGCGUCAGUAACAUGAGGAUCACCCAUGUAACAUUGAAUUCGAUGAGACAGGUAGGUCGCUGAAUAGUAA [JR_SSArginiB_Sub019]	27.8
